The results in this text go back to article PMC3675498.

Common to all, as to test: EMSA
In general terms: In EMSA bound probe runs differently from free probe, usually more slowly.

Data set [1] has as its target T1, H3 octamer (H3/H4/H2A/H2B), splits to hemisome (UniProt P61830;P02309;P04911;P02293 2-136;2-103;2-132;2-131).
Data set [2] has as its target T2, Cse4 octamer (Cse4/H4/H2A/H2B), splits to hemisome (UniProt P36012;P02309;P04911;P02293 1-229;1-103;1-132;1-131).
In another data set the target is Cse4-Δ90 octamer (UniProt P36012;P02309;P04911;P02293 91-229;2-103;2-132;2-131).
Sequence of Cse4-Δ90 octamer (P04911 2-132, stated change not applied, chain 3 of 2): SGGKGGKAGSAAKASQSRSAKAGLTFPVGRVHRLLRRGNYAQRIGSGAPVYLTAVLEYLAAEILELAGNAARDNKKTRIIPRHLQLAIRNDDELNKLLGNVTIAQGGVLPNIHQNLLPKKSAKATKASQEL
Sequence of Cse4-Δ90 octamer (P02293 2-131, stated change not applied, chain 4 of 2): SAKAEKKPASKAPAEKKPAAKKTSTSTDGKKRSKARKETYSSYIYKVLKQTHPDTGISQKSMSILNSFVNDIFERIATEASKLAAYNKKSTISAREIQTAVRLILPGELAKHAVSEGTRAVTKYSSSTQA
The target in data set [3] is T2, Cse4 octamer (Cse4/H4/H2A/H2B), splits …. This is another data set of the same source.
The target of data set [4] is T1, H3 octamer (H3/H4/H2A/H2B), splits to …. This is another data set of the same source.

Where two headings read alike, the source gives them in different places.

T2 sequence (P36012 whole entry, chain 1 of 2): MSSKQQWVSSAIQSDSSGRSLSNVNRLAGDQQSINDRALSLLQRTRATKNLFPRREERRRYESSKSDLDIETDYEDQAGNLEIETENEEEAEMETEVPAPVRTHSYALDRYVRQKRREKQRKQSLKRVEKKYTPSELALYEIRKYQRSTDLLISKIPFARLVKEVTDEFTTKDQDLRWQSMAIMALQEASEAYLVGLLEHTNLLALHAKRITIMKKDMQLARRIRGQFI
T2 sequence (P02293 whole entry, chain 4 of 2): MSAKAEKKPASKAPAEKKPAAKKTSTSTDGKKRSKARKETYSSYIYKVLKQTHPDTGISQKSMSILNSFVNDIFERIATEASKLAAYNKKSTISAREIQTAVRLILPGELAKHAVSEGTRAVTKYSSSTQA
T1 sequence (P04911 2-132, chain 3 of 2): as the sequence (P04911 2-132, stated change not applied, chain 3 of 2) above
T1 sequence (P02293 2-131, chain 4 of 2): as the sequence (P02293 2-131, stated change not applied, chain 4 of 2) above

B1: Cen4 CDEII 78 bp (dsDNA)
DNA 1: CTTATAATCAACTTTTTTAAAAATTTAAAATACTTTTTTATTTTTTATTTTTAAACATAAATGAAATAATTTATTTAT
DNA 2: ATAAATAAATTATTTCATTTATGTTTAAAAATAAAAAATAAAAAAGTATTTTAAATTTTTAAAAAAGTTGATTATAAG
B1: the binding result in data set [1] and in data set [2] was “binds” each time.

B2: α62 (dsDNA)
DNA 1: CCTGCAGATACTACCAAAAGTGTATTTGGAAACTGCTCCATCAAAAGGCATGTTCAGCTGGA
DNA 2: TCCAGCTGAACATGCCTTTTGATGGAGCAGTTTCCAAATACACTTTTGGTAGTATCTGCAGG
Turning to B2, the binding result (in the data set with Cse4-Δ90 octamer; in data set [3]; in data set [4]) was “binds” throughout.
